Test results from article PMC12862363, “AURKB-driven dissolution of CIZ1–RNA assemblies from the inactive X chromosome in mitosis” (Nucleic Acids Research, 2026).
Blank lines part the entries; values can stand above or below the molecule they belong to.

Columns and labels:
[1] = tested on: C179WT (hCIZ1 C-terminal fragment) (Homo sapiens); experiment: EMSA; details: 0.66 nM RNA; yeast tRNA 0.1 mg/ml; 10 mM Tris-HCl pH 7, 30 mM NaCl, 2.5 mM MgCl2, 0.1% IGEPAL CA-630, 0.1 mg/ml yeast tRNA, 1.5% RNaseOUT, 0.2 mM EDTA, 0.2 mM DTT, 30 C 20 min; 0.8% agarose/TBE …
[2] = molecular target: murine CIZ1 fragment C181 (mouse) (UniProt Q8VEH2); experiment: SEC-MALS; SEC-MALLS; 100 µl of >1 mg/ml purified protein, Superdex S200 10/300 GL, cleavage buffer (50 mM Tris-HCl pH 7, 150 mM NaCl, 1 mM EDTA, 1 mM DTT), 0.5 ml/min, room temperature (20 ± 2°C)
[3] = molecular target: human CIZ1-C179Δtail (human) (UniProt Q9ULV3); experiment: as above
[4] = molecular target: the molecule itself; experiment: as above

Molecule: Xist repeat E RNA probe
- binding signal (% probe shifted at 5 µM protein) [1]: 99

- stoichiometry N [2]: 2
Molecule: murine CIZ1 fragment C181 (from UniProt Q8VEH2 665-845) (domain or fragment)

- stoichiometry N [3]: 2
Molecule: human CIZ1-C179Δtail (from UniProt Q9ULV3-1 720-860) (domain or fragment)

B1: human CIZ1-C179 (domain or fragment, UniProt Q9ULV3-1 720-898, looked up)
chain: EKEIAGQDEDHFITVDAVGCFEGDEEEEEDDEDEEEIEVEEELCKQVRSRDISREEWKGSETYSPNTAYGVDFLVPVMGYICRICHKFYHSNSGAQLSHCKSLGHFENLQKYKAAKNPSPTTRPVSRRCAINARNALTALFTSSGRPPSQPNTQDKTPSKVTARPSQPPLPRRSTRLKT
notes: the terminal residue is printed as Thr 898; also called hC179; C179WT; source: E. coli BL21 RP CodonPlus, purified (GSTrap, on-column PreScission cleavage, Superdex 200); not shown: GST, N-terminal, cleaved
- stoichiometry N [4]: 2
